Experiment [1] deals with collagen. Description: RT-PCR analysis of collagen transcript in foreskin fibroblast cells. It counts as cell-based. As to conditions: for collagen synthesis (RT-PCR), deletion fragments, compared with C-terminal fragment SEQ ID NO: 15: 100 nM for 2 hours and 6 hours, FIG. 6; for synthesis of collagen (RT-PCR), AIMP1 fragments: 100 nM, 0, 1, 2, 4 and 6 hours, FIG. 5. As to the method: (§1) In order to measure the collagen transcript RNA induced by the AIMP1, foreskin fibroblast cells (5×10^4 cells/well; obtained from MTT; accession number: MC1232) were cultured in 10% serum-containing DMEM medium on a 6-well plate for 12 hours and then cultured in serum-free medium for about 3 hours. Next, the cultured cells were treated with the AIMP1 (SEQ ID NO: 1) at varying AIMP1 concentrations of 0, 20, 50, 100 and 200 nM for 6 hours (RT-PCR) or 12 hours (Western blot).
The cells treated with the AIMP1 at varying concentrations in Example <1-1> were collected and dissolved in TRIzol (invitrogen). 10% by weight of chloroform was added to the cell lysate, and mixed well. The mixture was centrifuged at 12,000 g for 15 minutes and the supernatant was collected. Ethanol was added to the collected supernatant to a final concentration of 70%. Then, the supernant was centrifuged at 26,000 g for 5 minutes and the precipitant was collected. The precipitant was dried and dissolved in sterilized distilled water, and the total RNA was extracted. 3 μg of the total RNA was used to prepare cDNA. Then, the cDNA was amplified by PCR using collagen-specific primers (SEQ ID NO: 4 and SEQ ID NO: 5). At this time, for use as a control group, the cDNA was subjected to PCR using GADPH-specific primers (SEQ ID NO: 6 and SEQ ID NO: 7). The PCR reaction consisted of: pre-denaturation of the template DNA at 95° C. for 5 min, followed by 25 cycles of 1 min at 95° C., 1 min at 52° C. and 1 min at 72° C., and then a final extension for 5 min at 72° C.
(§2) Foreskin fibroblast cells (5×10^4 cells/well) were cultured in 10% serum-containing DMEM medium on a 6-well plate for 12 hours, and then, cultured in serum-free medium for about 3 hours. Next, the cultured cells were treated with 100 nM of the AIMP1 at various time intervals (0, 2, 4, 6, 12 and 24 hours).
(§3) Foreskin fibroblast cells (5×10^4 cells/well) were cultured in 10% serum-containing DMEM medium on a 6-well plate about 12 hours, and then, cultured in serum-free medium for about 3 hours. Then, the cultured cells were treated with 100 nM of the N-terminal and C-terminal fragments of the AIMP1 prepared in Reference Example 1, at various time intervals of 0, 1, 2, 4, and 6 hours. Then, RT-PCR was performed in the same manner as in Example <1-2> using each of collagen-specific primers (SEQ ID NO: 4 and SEQ ID NO: 5), KGF-specific primers (SEQ ID NO: 8 and SEQ ID NO: 9) and GADPH-specific primers (SEQ ID NO: 6 and SEQ ID NO: 7).
(§4) Foreskin fibroblast cells (5×10^4 cells/well) were cultured in 10% serum-containing DMEM medium on a 6-well plate for 12 hours and then cultured in serum-free medium for about 3 hours. Next, the cultured cells were treated with each of the N-terminal fragments (SEQ ID NOS: 12, 13 and 14) and C-terminal fragment (SEQ ID NO: 15) of AIMP1 prepared in Reference Example 2 at an concentration of 100 nM for 2 hours and 6 hours, respectively. The treated cells were subjected to RT-PCR using collagen-specific primers (SEQ ID NOS: 4 and 5), KGF-specific primers (SEQ ID NOS: 8 and 9) and GADPH-specific primers (SEQ ID NOS: 6 and 7) in the same manner as in Example <1-2>.

In experiment [2] the test system is collagen. Description: Western blot analysis of collagen (anti-collagen I antibody) in foreskin fibroblast cells. In kind it is cell-based. As to conditions: 200 nM for 12 hours, FIG. 7. As to the method: as §1
The cells treated with the AIMP1 at varying AIMP1 concentrations in Example <1-1> were collected and lysed in a cell lysis buffer (50 mM HEPES, pH 7.5, 150 mM NaCl, 10% glycerol, 5 mM EGTA, 1 mM sodium orthovanadate, 10 mM NaF, 12 mM b-glycerophosphate, 1 mM DTT, 1 mM PMSF, […] aprotinin, and 1% NP40). Lysed cells were centrifuged at 26,000 g for 15 minutes and the cell extract was isolated. 30 μg of the cell extract was separated by 8% SDS-PAGE and immunoblotted with an anti-collagen I antibody (Abcam) according to any conventional method known in the art. As a control group, an anti-tubulin antibody (Sigma) was used.
as §2
Foreskin fibroblast cells (5×10^5 cells/well) were cultured in 10% serum-containing DMEM medium on a 6-well plate for 48 hours and then cultured in serum-free medium for about 3 hours. Next, the cultured cells were treated with each of the AIMP1 (SEQ ID NO: 1) and the AIMP1 N-terminal fragments (SEQ ID NOS: 2 and 12) at a concentration of 200 nM for 12 hours. As a control group, cells without treatment were used.
The cells treated with each of the AIMP1 and its N-terminal fragments and the control cells were collected at the indicated time and subjected to Western blot analysis in the same manner as in Example <1-3>.

Experiment [3] has as its system KGF. Description: RT-PCR analysis of KGF expression in foreskin fibroblast cells. In kind it is cell-based. As to conditions: for KGF synthesis (RT-PCR), deletion fragments, compared with C-terminal fragment SEQ ID NO: 15: 100 nM for 2 hours and 6 hours, FIG. 6; for synthesis of KGF (RT-PCR), AIMP1 fragments: 100 nM, 0, 1, 2, 4 and 6 hours, FIG. 5. As to the method: From foreskin fibroblast cells treated with 100 nM of the AIMP1 for 2 hours, the total RNA was extracted in the same manner as described in Example <1-2>. Then, the extract was amplified by RT-PCR using KGF-specific primers (SEQ ID NO: 8 and SEQ ID NO: 9). The control groups were amplified using cyclin D-specific primers (SEQ ID NO: 10 and SEQ ID NO: 11) and GADPH-specific primers (SEQ ID NO: 6 and SEQ ID NO: 7), respectively. The PCR reaction consisted of: predenaturation of the template DNA at 95° C. for 5 min, followed by 25 cycles of 1 min at 95° C., 1 min at 52° C. and 1 min at 72° C., and then, a final extension for 5 min at 72° C.
as §3, §4

For experiment [4], the system named is KGF. Description: Activity to stimulate KGF expression (data not shown).
Experiment [5] concerns collagen. Description: Activity to stimulate collagen synthesis (data not shown).

For “SEQ ID NO: 12: N-terminal deletion fragment of AIMP1, amino acids 6-46 (AVLKRLEQKGAEADQIIEYLKQQVSLLKEKAILQATLREEK; PEPTIDE (1)..(41) AIMP1-(6-46); listed as Homo sapiens)”, the “collagen synthesis (RT-PCR), deletion fragments, compared with C-terminal fragment SEQ ID NO: 15” value in the experiment with collagen [1] is given as “more stimulated”. The “synthesis of collagen, protein levels (Western blot), compared with cells without treatment” value with collagen [2] is on record as “more stimulated”. Besides, the “KGF synthesis (RT-PCR), deletion fragments, compared with C-terminal fragment SEQ ID NO: 15” value with KGF [3] is on record as “more stimulated”.
As for “SEQ ID NO: 13: N-terminal deletion fragment of AIMP1, amino acids 1-46 (MANNDAVLKRLEQKGAEADQIIEYLKQQVSLLKEKAILQATLREEK; PEPTIDE (1)..(46) AIMP1-(1-46); listed as Homo sapiens)”, the “collagen synthesis (RT-PCR), deletion fragments, compared with C-terminal fragment SEQ ID NO: 15” value in the experiment on collagen [1] was “more stimulated”. Also, in the experiment with KGF [3], the “KGF synthesis (RT-PCR), deletion fragments, compared with C-terminal fragment SEQ ID NO: 15” value was “more stimulated”.
For the molecule “SEQ ID NO: 14: N-terminal deletion fragment of AIMP1, amino acids 1-53 (MANNDAVLKRLEQKGAEADQIIEYLKQQVSLLKEKAILQATLREEKKLRVENA; PEPTIDE (1)..(53) AIMP1-(1-53); listed as Homo sapiens)”, in the experiment with collagen [1], the “collagen synthesis (RT-PCR), deletion fragments, compared with C-terminal fragment SEQ ID NO: 15” value was “more stimulated”. The “KGF synthesis (RT-PCR), deletion fragments, compared with C-terminal fragment SEQ ID NO: 15” value in the experiment with KGF [3] was “more stimulated”.

B1: SEQ ID NO: 27: fragment consisting of amino acids 1-192 of the AIMP1 (protein, listed as Homo sapiens)
chain: MANNDAVLKRLEQKGAEADQIIEYLKQQVSLLKEKAILQATLREEKKLRVENAKLKKEIEELKQELIQAEIQNGVKQIAFPSGTPLHANSMVSENVIQSTAVTTVSSGTKEQIKGGTGDEKKAKEKIEKKGEKKEKKQQSIAGSADSKPIDVSRLDLRIGCIITARKHPDADSLYVEEVDVGEIAPRTVVSG
modifications: PEPTIDE (1)..(192) AIMP1-(1-192)
notes: fragment consisting of amino acids 1-192 of the AIMP1
For B1, in the experiment with KGF [4], the “activity to stimulate KGF expression” value is “have the activity to stimulate collagen synthesis and KGF expression”. The “activity to stimulate collagen synthesis” value with collagen [5] is “have the activity to stimulate collagen synthesis”.

B2: C-terminal fragment: C-terminal fragment of AIMP1, amino acids 148-312 (protein, listed as Homo sapiens)
chain: KPIDVSRLDLRIGCIITARKHPDADSLYVEEVDVGEIAPRTVVSGLVNHVPLEQMQNRMVILLCNLKPAKMRGVLSQAMVMCASSPEKIEILAPPNGSVPGDRITFDAFPGEPDKELNPKKKIWEQIQPDLHTNDECVATYKGVPFEVKGKGVCRAQTMSNSGIK
modifications: PEPTIDE (1)..(165) AIMP1-(148-312)
On to B2, for which, in the experiment on collagen [1], the “synthesis of collagen (RT-PCR), AIMP1 fragments” value is “no significant effect”. In the experiment with KGF [3], the “synthesis of KGF (RT-PCR), AIMP1 fragments” value is “no significant effect”.

B3: SEQ ID NO: 28: fragment consisting of amino acids 6-192 of the AIMP1 (protein, listed as Homo sapiens)
chain: AVLKRLEQKGAEADQIIEYLKQQVSLLKEKAILQATLREEKKLRVENAKLKKEIEELKQELIQAEIQNGVKQIAFPSGTPLHANSMVSENVIQSTAVTTVSSGTKEQIKGGTGDEKKAKEKIEKKGEKKEKKQQSIAGSADSKPIDVSRLDLRIGCIITARKHPDADSLYVEEVDVGEIAPRTVVSG
modifications: PEPTIDE (1)..(187) AIMP1-(6-192)
notes: fragment consisting of amino acids 6-192 of the AIMP1
On to B3, for which the “activity to stimulate KGF expression” value in the experiment on KGF [4] was “have the activity to stimulate collagen synthesis and KGF expression”. Further, in the experiment with collagen [5], the “activity to stimulate collagen synthesis” value is recorded as “have the activity to stimulate collagen synthesis”.

B4: SEQ ID NO: 2: N-terminal fragment of AIMP1, amino acids 1-147 (protein, listed as Homo sapiens)
chain: MANNDAVLKRLEQKGAEADQIIEYLKQQVSLLKEKAILQATLREEKKLRVENAKLKKEIEELKQELIQAEIQNGVKQIAFPSGTPLHANSMVSENVIQSTAVTTVSSGTKEQIKGGTGDEKKAKEKIEKKGEKKEKKQQSIAGSADS
modifications: PEPTIDE (1)..(147) AIMP1-(1-147)
Turning to B4, the “synthesis of collagen (RT-PCR), AIMP1 fragments” value in the experiment on collagen [1] was “stimulated”. Moreover, in the experiment with collagen [2], the “synthesis of collagen, protein levels (Western blot), compared with cells without treatment” value is on record as “more stimulated”. Moreover, in the experiment on KGF [3], the “synthesis of KGF (RT-PCR), AIMP1 fragments” value was “stimulated”.

The values above are taken from patent US20100167997A1, “METHOD FOR STIMULATION COLLAGEN SYNTHESIS AND/OR KGF EXPRESSION” (ATYR PHARMA, INC., priority 2005, published 2010).
